Laboratory results as given in the supplement of paper PMC7877785.
± gives the uncertainty stated by the source.

Assay: self-splicing fitness, log relative to wild type (ln ratio); higher = more splicing; Tetrahymena group I intron in knt gene, E. coli kanamycin selection, DiMSum; sequences stand for … in CUCUCU…GGAGGGAAAAGUUAUCAGGCAUGCACCUGGUAGCUAGUCUUUAAACCAAUAGAUUGCAUCGGUUUAAAAGGCAAGACCGUCAAAUUGCGGGAAAGGGGUCAACAGCCGUUCAGUACCAAGUCUCAGGGGAAACUUUGAGAUGGCCUUGCAAAGGGUAUGGUAAUAAGCUGACGGACAUGGUCCUAACCACGCAGCCAAGUCCUAAGUCAACAGAUCUUCUGUUGAUAUGGAUGCAGUUCACAGACUAAAUGUCGGUCGGGGAAGAUGUAUUCUUCUCAUAAGAUAUAGUCGGACCUCUCCUUAAUGGGAGCUAGCGGAUGAAGUGAUGCAACACUGGAGCCGCUGGGAACUAAUUUGUAUGCGAAAGUAUAUUGAUUAGUUUUGGAGUACUCGUGGUCG
Procedure, shortened: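 Six replicate transformations of E. coli BL21(DE3) with a pET-22b(+) library were grown overnight at 37°C or 30°C. The library randomised all eight P1ex-region intron nucleotides, the intron lying in the knt kanamycin-resistance gene, and plates were LB agar with or without 25 μg/mL kanamycin plus 100 μg/mL carbenicillin, 50 μM IPTG and 0.2% rhamnose. Pooled colonies were amplicon-sequenced on an Illumina HiSeq 2500, and fitness is the DiMSum error-weighted combination of wild-type-normalised replicate fold changes, kanamycin versus none.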

| Sequence | self-splicing fitness (ln) (30 °C) | self-splicing fitness (ln) (37 °C) |
| --- | --- | --- |
| UUUCAGCAAUAUUACGCAAU | -2.36 ± 0.21 | -0.692 ± 0.23 |
| ACGCAGCAAUAUUACGUGGU | -4.06 ± 0.12 | -2.58 ± 0.091 |
| AAGCAGCAAUAUUACGUAUG | -4.5 ± 0.26 | -2.63 ± 0.17 |
| GCGGAGCAAUAUUACGAAUA | – | -3.02 ± 0.4 |
| UAACAGCAAUAUUACGUCCC | -2.98 ± 0.34 | -1.38 ± 0.27 |
| AAUUAGCAAUAUUACGCCUC | -1.22 ± 0.18 | -2.47 ± 0.25 |
| UAUUAGCAAUAUUACGGCUG | -0.432 ± 0.079 | 0.0834 ± 0.13 |
| CGGGAGCAAUAUUACGGUGG | -3.1 ± 0.37 | -2.43 ± 0.45 |
| GACCAGCAAUAUUACGUCAG | -4.79 ± 0.32 | -2.85 ± 0.27 |
| ACACAGCAAUAUUACGUGAU | -2.14 ± 0.062 | -1.34 ± 0.086 |
| UGGUAGCAAUAUUACGACAG | -0.598 ± 0.3 | -0.713 ± 0.38 |
| AAGAAGCAAUAUUACGUAAG | -1.37 ± 0.069 | -0.942 ± 0.083 |
| UAAUAGCAAUAUUACGCUCG | 0.447 ± 0.16 | 0.265 ± 0.18 |
| AAGCAGCAAUAUUACGUUGU | -3.89 ± 0.12 | -2.31 ± 0.11 |
| AGUUAGCAAUAUUACGGAUC | -1.01 ± 0.13 | -1.09 ± 0.18 |
| ACUCAGCAAUAUUACGGUCA | -1.11 ± 0.11 | -1.05 ± 0.1 |
| UAAGAGCAAUAUUACGCAAA | -2.38 ± 0.21 | -2.44 ± 0.21 |
| AUGUAGCAAUAUUACGGGGG | -3.28 ± 0.27 | -2.47 ± 0.37 |
| AUUCAGCAAUAUUACGGCUC | -0.786 ± 0.081 | -0.0849 ± 0.1 |
| AUAGAGCAAUAUUACGACUA | -0.25 ± 0.073 | 0.211 ± 0.088 |
| UACCAGCAAUAUUACGUCGG | -2.64 ± 0.12 | -1.91 ± 0.14 |
| CCUUAGCAAUAUUACGUAGG | -2.83 ± 0.14 | -2.83 ± 0.18 |
| AGUUAGCAAUAUUACGCACU | -1.6 ± 0.26 | -1.09 ± 0.23 |
| CUUAAGCAAUAUUACGAUGC | -3.42 ± 0.35 | -2.1 ± 0.33 |
| UUAGAGCAAUAUUACGCUCG | -1.98 ± 0.23 | – |
| GUCUAGCAAUAUUACGGUAA | -1.67 ± 0.11 | -0.172 ± 0.11 |

| Sequence | self-splicing fitness (ln) (30 °C) | self-splicing fitness (ln) (37 °C) |
| --- | --- | --- |
| UGUAAGCAAUAUUACGAUUC | – | -2.35 ± 0.26 |
| AGAAAGCAAUAUUACGUCAG | -1.94 ± 0.093 | -0.978 ± 0.11 |
| CUUCAGCAAUAUUACGUCAU | -3.34 ± 0.21 | -3.76 ± 0.34 |
| UGGGAGCAAUAUUACGCCGG | -2.45 ± 0.23 | -2.19 ± 0.31 |
| UAUCAGCAAUAUUACGUUCA | -0.267 ± 0.11 | 0.345 ± 0.15 |
| AACCAGCAAUAUUACGGCAG | -1.02 ± 0.058 | -0.17 ± 0.08 |
| AGAAAGCAAUAUUACGGUCA | -0.253 ± 0.078 | 0.187 ± 0.091 |
| CCACAGCAAUAUUACGCUCA | -2.89 ± 0.21 | -2.41 ± 0.27 |
| GCGCAGCAAUAUUACGAAAC | -0.473 ± 0.16 | -0.354 ± 0.19 |
| AUGAAGCAAUAUUACGCUCA | 0.436 ± 0.068 | 0.555 ± 0.082 |
| UAAAAGCAAUAUUACGUGAG | -0.888 ± 0.044 | -0.622 ± 0.078 |
| UCAUAGCAAUAUUACGUUAC | -3.58 ± 0.29 | -3.01 ± 0.33 |
| AUUGAGCAAUAUUACGCGGU | -2.19 ± 0.19 | – |
| CCGCAGCAAUAUUACGCCGG | -3.15 ± 0.38 | -3 ± 0.43 |
| CGUUAGCAAUAUUACGCGAC | -3.76 ± 0.26 | -1.84 ± 0.17 |
| UAGGAGCAAUAUUACGUCAG | -4.59 ± 0.42 | -1.7 ± 0.26 |
| UGAAAGCAAUAUUACGAAAU | -3.67 ± 0.2 | -1.95 ± 0.18 |
| AAGAAGCAAUAUUACGGGAU | -3.22 ± 0.22 | -1.77 ± 0.18 |
| CCUAAGCAAUAUUACGAAGA | -1.82 ± 0.22 | -1.82 ± 0.22 |
| CUCUAGCAAUAUUACGCAUU | -4.34 ± 0.39 | -4 ± 0.39 |
| GUAGAGCAAUAUUACGUUUA | -2.09 ± 0.17 | -1.39 ± 0.17 |
| CAGAAGCAAUAUUACGAAGU | -3.9 ± 0.37 | -2.48 ± 0.26 |
| CCAAAGCAAUAUUACGUUAG | -1.89 ± 0.071 | -0.652 ± 0.073 |
| AAGCAGCAAUAUUACGAUUA | -1.4 ± 0.077 | -0.962 ± 0.066 |
| GCCUAGCAAUAUUACGUAUC | -1.26 ± 0.076 | -0.501 ± 0.094 |
| GGUCAGCAAUAUUACGGACC | -3.67 ± 0.18 | -2.08 ± 0.22 |

| Sequence | self-splicing fitness (ln) (30 °C) | self-splicing fitness (ln) (37 °C) |
| --- | --- | --- |
| CUCGAGCAAUAUUACGCACC | – | -2.08 ± 0.32 |
| CAUCAGCAAUAUUACGAAAU | -4.26 ± 0.2 | -2.66 ± 0.16 |
| UUCAAGCAAUAUUACGUAUC | -4.16 ± 0.24 | -1.85 ± 0.16 |
| CUUAAGCAAUAUUACGAUCG | -0.53 ± 0.082 | 0.874 ± 0.12 |
| GCUGAGCAAUAUUACGCAUU | -2.67 ± 0.13 | -1.63 ± 0.2 |
| CCACAGCAAUAUUACGAAGG | -3.62 ± 0.13 | -2.92 ± 0.16 |
| UUGCAGCAAUAUUACGUAUU | -2.57 ± 0.14 | -1.43 ± 0.15 |
| AGUCAGCAAUAUUACGAAAC | – | -1.45 ± 0.28 |
| CACAAGCAAUAUUACGCUUA | -2.27 ± 0.13 | -2.15 ± 0.13 |
| GACUAGCAAUAUUACGAACA | -1.02 ± 0.16 | -0.254 ± 0.17 |
| AAACAGCAAUAUUACGGCUA | -0.275 ± 0.064 | -0.0695 ± 0.076 |
| CGCAAGCAAUAUUACGCAAA | -1.92 ± 0.22 | -2.99 ± 0.37 |
| AGUAAGCAAUAUUACGUUUC | -3.78 ± 0.23 | -1.37 ± 0.21 |
| CCCGAGCAAUAUUACGCCCU | – | -2.24 ± 0.33 |
| CCCCAGCAAUAUUACGAAGA | -2.91 ± 0.24 | -2.52 ± 0.26 |
| AUUCAGCAAUAUUACGCUGG | -3.36 ± 0.17 | -2.98 ± 0.26 |
| UGACAGCAAUAUUACGGCCA | -0.00432 ± 0.11 | 0.373 ± 0.13 |
| CAGUAGCAAUAUUACGCACA | -1.88 ± 0.14 | -0.579 ± 0.18 |
| GCGUAGCAAUAUUACGGGGA | -2.23 ± 0.32 | -2.89 ± 0.35 |
| UACAAGCAAUAUUACGAGAU | -3.65 ± 0.28 | -3.07 ± 0.28 |
| AUGAAGCAAUAUUACGCCCC | 0.963 ± 0.19 | 0.00961 ± 0.23 |
| GGACAGCAAUAUUACGAGUC | -4.31 ± 0.2 | -2.75 ± 0.15 |
| ACGUAGCAAUAUUACGACUC | -0.301 ± 0.26 | -0.584 ± 0.27 |
| GAUUAGCAAUAUUACGGGUC | – | -2.78 ± 0.34 |
| CGUUAGCAAUAUUACGUCGG | -0.297 ± 0.1 | 0.0154 ± 0.14 |
